Reference: PMC3539977, “Plant Coilin: Structural Characteristics and RNA-Binding Properties” (PLoS ONE, 2013)

Experiments:
[1] = system: Co-86-608 (Arabidopsis thaliana); test: EMSA; conditions: apparent; RNA taken as U1 snRNA; EMSA: 20 mM Tris-HCl pH 7.5, 1 mM DTT, 3 mM MgCl2, 50 mM NaCl, on ice 15 min; 0.1 ug RNA, 2% Tris-acetate agarose gel
[2] = system: IDD (Arabidopsis thaliana); test: EMSA; conditions: apparent; EMSA: 20 mM Tris-HCl pH 7.5, 1 mM DTT, 3 mM MgCl2, 50 mM NaCl, on ice 15 min; 0.1 ug RNA, 2% Tris-acetate agarose gel
[3] = system: IDD-118-212 (Arabidopsis thaliana); test: EMSA; conditions: apparent; EMSA: 20 mM Tris-HCl pH 7.5, 1 mM DTT, 3 mM MgCl2, 50 mM NaCl, on ice 15 min; 0.1 ug RNA, 2% Tris-acetate agarose gel
[4] = system: IDD-212-350 (Arabidopsis thaliana); test: EMSA; conditions: apparent; EMSA: 20 mM Tris-HCl pH 7.5, 1 mM DTT, 3 mM MgCl2, 50 mM NaCl, on ice 15 min; 0.1 ug RNA, 2% Tris-acetate agarose gel
[5] = system: IDD-212-350-NLS2 (Arabidopsis thaliana); test: EMSA; conditions: apparent; EMSA: 20 mM Tris-HCl pH 7.5, 1 mM DTT, 3 mM MgCl2, 50 mM NaCl, on ice 15 min; 0.1 ug RNA, 2% Tris-acetate agarose gel
[6] = system: NOD (Arabidopsis thaliana); test: EMSA; conditions: apparent; EMSA: 20 mM Tris-HCl pH 7.5, 1 mM DTT, 3 mM MgCl2, 50 mM NaCl, on ice 15 min; 0.1 ug RNA, 2% Tris-acetate agarose gel
[7] = system: NOD-RK1 (Arabidopsis thaliana); test: EMSA; conditions: apparent; EMSA: 20 mM Tris-HCl pH 7.5, 1 mM DTT, 3 mM MgCl2, 50 mM NaCl, on ice 15 min; 0.1 ug RNA, 2% Tris-acetate agarose gel
[8] = molecular target: the molecule itself; test: dynamic light scattering; protein at 0.05 mg/ml in 1 mM phosphate buffer pH 7.5, Zetasizer Nano ZS; free protein, and with U1 snRNA at a protein:RNA molar ratio of 5:1

With U1 snRNA the Kd [1] was 40 nM, the Kd [2] was 40 nM and the Kd [3] was 1420 nM. For the same molecule, the Kd [4] was 60 nM, the Kd [5] was 480 nM and the Kd [6] was 760 nM. It also gave a Kd [7] of 2250 nM.

B1: Arabidopsis thaliana coilin (Atcoilin), wild type (natural protein, UniProt Q8RWK8 1-608, looked up)
chain: MEEEKVRVRLVFEDRRILSKYQKKQGLTRSWVVLNRKCHRTISEFSDHIFHTFSLCEACPHGLSLSMEGFVLPPFESSCVLKDKDIVCVKKKKESLLEIVGEDSDENVYNAIEVEERPQIRPGEMLLANEEFQKETGGYESESEEDELEEEAEEFVPEKKASKKRKTSSKNQSTKRKKCKLDTTEESPDERENTAVVSNVVKKKKKKKSLDVQSANNDEQNNDSTKPMTKSKRSSQQEESKEHNDLCQLSAETKKTPSRSARRKKAKRQWLREKTKLEKEELLQTQLVVAPSQKPVITIDHQATKEKHCETLENQQAEEVSDGFGDEVVPVEVRPGHIRFKPLAGTDEASLDSEPLVENVLWNGNMTKKKGQKWGTEKSGFSKRYAQDFNEDATTQPAEAETLANCPIDYEQLVAYTGSVKKGDVIAYRLIELTSSWTPEVSSFRVGKISYYDPDSKMVTLMPVQEFPIEKKTEEDDDFCMQPDTSLYKEDGSLEIEFSALLDVRSVKTSSSDSAEVAKSALPEPDQSAKKPKLSANKELQTPAKENGEVSPWEELSEALSAKKAALSQANNGWNKKGSSSGGSWSYKALRGSAMGPVMNYLRSQKEI
notes: coilin of Arabidopsis thaliana, a 608-amino acid protein (NM_101173.4; GI:42562030); Cloned into the PQE30 vector; forms oligomers larger than a decamer in solution by DLS; also called wt coilin; wt Atcoilin; source: E. coli JM109, purified under denaturing conditions (Ni-NTA agarose), renatured by dialysis
With B1 the “stoichiometry N” value [8] was greater than 10.

B2: Atcoilin N-terminal ordered domain (NOD), residues 1-117 (domain or fragment, Arabidopsis thaliana, UniProt Q8RWK8 1-117, looked up)
chain: MEEEKVRVRLVFEDRRILSKYQKKQGLTRSWVVLNRKCHRTISEFSDHIFHTFSLCEACPHGLSLSMEGFVLPPFESSCVLKDKDIVCVKKKKESLLEIVGEDSDENVYNAIEVEER
notes: coilin of Arabidopsis thaliana (NM_101173.4; GI:42562030), NOD, 1-117 aa residues; also called N-terminal domain; source: E. coli JM109, purified under denaturing conditions (Ni-NTA agarose), renatured by dialysis
B2: binds [8].
